This assay concerns the target B-Myb negative regulatory domain, amino acids 440-600 (NRD^440-600) (human, UniProt P10244-1 440-600). Put plainly: ITC.

This is an account of results in article doi:10.1101/2022.06.13.495963 (bioRxiv, 2022).

B-Myb negative regulatory domain, amino acids 440-600 (NRD^440-600), sequence (P10244 440-600): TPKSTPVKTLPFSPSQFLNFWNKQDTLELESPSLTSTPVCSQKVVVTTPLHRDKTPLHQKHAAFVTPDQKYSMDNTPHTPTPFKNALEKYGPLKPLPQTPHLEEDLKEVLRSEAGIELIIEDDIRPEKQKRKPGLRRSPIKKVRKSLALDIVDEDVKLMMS

B1: B-Myb DNA binding domain (B-Myb^34-183) (domain or fragment)
chain: not shown
What is called Kd is the equilibrium constant for the complex coming apart. Low values mean higher affinity, high ones lower affinity. With B1, binding was put at a Kd of 4.5 µM.
